Data taken from publication PMC10397247.
Where two headings read alike, the source gives them in different places.

Tests used:
Experiment in all cases: two-hybrid library CCmax;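 note: natural log of median RNA to DNA barcode read ratio; higher means stronger binding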
[1] = biological target: T1, 4H891-AA; conditions: mean of both orientations
T1 chain: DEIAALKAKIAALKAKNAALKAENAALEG

[2] = biological target: T2, 4H310-AA; conditions: mean of both orientations
T2 chain: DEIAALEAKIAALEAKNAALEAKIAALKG

[3] = biological target: T3, 4H909-AA; conditions: mean of both orientations
T3 chain: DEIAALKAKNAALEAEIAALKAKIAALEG

[4] = biological target: T4, 4H2865-AA; conditions: mean of both orientations
T4 chain: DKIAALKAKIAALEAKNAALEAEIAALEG

[5] = biological target: T5, 4H2473-AA; conditions: mean of both orientations
T5 chain: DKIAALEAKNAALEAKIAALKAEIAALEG

[6] = biological target: T6, 4H2725-AA
T6 chain: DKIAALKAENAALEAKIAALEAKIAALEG

[7] = biological target: T7, 4H3009-AA; conditions: mean of both orientations
T7 chain: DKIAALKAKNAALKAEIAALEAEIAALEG

[8] = biological target: T8, 4H3130-AA; conditions: mean of both orientations
T8 chain: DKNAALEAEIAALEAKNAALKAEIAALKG

[9] = biological target: T9, 4H1877-AA; conditions: mean of both orientations
T9 chain: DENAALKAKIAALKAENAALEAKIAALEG

[10] = biological target: T10, 4H930-AA; conditions: mean of both orientations
T10 chain: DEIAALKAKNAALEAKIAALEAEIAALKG

[11] = biological target: T11, 4H458-AA; conditions: mean of both orientations
T11 chain: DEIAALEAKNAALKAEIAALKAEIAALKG

[12] = biological target: T12, 4H570-AA; conditions: mean of both orientations
T12 chain: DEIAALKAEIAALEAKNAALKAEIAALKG

[13] = biological target: T13, 4H3120-AA; conditions: mean of both orientations
T13 chain: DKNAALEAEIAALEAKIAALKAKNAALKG

[14] = biological target: T14, 4H629-AA; conditions: mean of both orientations
T14 chain: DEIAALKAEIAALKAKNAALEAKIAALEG

[15] = biological target: T15, 4H2274-AA; conditions: mean of both orientations
T15 chain: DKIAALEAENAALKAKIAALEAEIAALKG

[16] = biological target: T16, 4H2109-AA; conditions: mean of both orientations
T16 chain: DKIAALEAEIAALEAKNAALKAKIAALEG

[17] = biological target: T17, 4H2698-AA; conditions: mean of both orientations
T17 chain: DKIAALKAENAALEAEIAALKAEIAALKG

[18] = biological target: T18, 4H3381-AA; conditions: mean of both orientations
T18 chain: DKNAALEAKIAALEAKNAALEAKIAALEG

[19] = biological target: T19, 4H2649-AA; conditions: mean of both orientations
T19 chain: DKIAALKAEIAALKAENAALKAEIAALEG

[20] = biological target: T20, 4H1842-AA
T20 chain: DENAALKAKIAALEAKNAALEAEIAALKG

[21] = biological target: T21, 4H3697-AA; conditions: mean of both orientations
T21 chain: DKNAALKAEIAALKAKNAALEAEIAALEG

[22] = biological target: T22, 4H3865-AA; conditions: mean of both orientations
T22 chain: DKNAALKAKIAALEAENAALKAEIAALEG

[23] = biological target: T23, 4H3016-AA; conditions: mean of both orientations
T23 chain: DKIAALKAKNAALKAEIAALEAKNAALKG

[24] = biological target: T24, 4H3165-AA; conditions: mean of both orientations
T24 chain: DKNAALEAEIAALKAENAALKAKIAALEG

[25] = biological target: T25, 4H710-AA; conditions: mean of both orientations
T25 chain: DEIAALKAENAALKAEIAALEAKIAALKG

[26] = biological target: T26, 4H3410-AA; conditions: mean of both orientations
T26 chain: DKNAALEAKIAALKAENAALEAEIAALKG

[27] = biological target: T27, 4H3395-AA; conditions: mean of both orientations
T27 chain: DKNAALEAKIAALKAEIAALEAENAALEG

[28] = biological target: T28, 4H485-AA; conditions: mean of both orientations
T28 chain: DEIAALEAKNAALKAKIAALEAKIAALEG

[29] = biological target: T29, 4H745-AA; conditions: mean of both orientations
T29 chain: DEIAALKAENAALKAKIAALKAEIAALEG

[30] = biological target: T30, 4H2253-AA; conditions: mean of both orientations
T30 chain: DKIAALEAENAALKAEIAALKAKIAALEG

[31] = biological target: T31, 4H2389-AA; conditions: mean of both orientations
T31 chain: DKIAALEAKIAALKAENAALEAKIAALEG

[32] = biological target: T32, 4H2330-AA
T32 chain: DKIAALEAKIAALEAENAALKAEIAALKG

[33] = biological target: T33, 4H850-AA; conditions: mean of both orientations
T33 chain: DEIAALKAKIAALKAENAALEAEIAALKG

[34] = biological target: T34, 4H2438-AA; conditions: mean of both orientations
T34 chain: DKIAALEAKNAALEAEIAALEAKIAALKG

[35] = biological target: T35, 4H536-AA; conditions: mean of both orientations
T35 chain: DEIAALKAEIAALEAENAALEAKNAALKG

[36] = biological target: T36, 4H3753-AA; conditions: mean of both orientations
T36 chain: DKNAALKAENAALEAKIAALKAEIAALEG

[37] = biological target: T37, 4H797-AA; conditions: mean of both orientations
T37 chain: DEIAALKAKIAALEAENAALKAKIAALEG

[38] = biological target: T38, 4H94-AA; conditions: mean of both orientations
T38 chain: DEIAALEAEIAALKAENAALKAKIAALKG

[39] = biological target: T39, 4H1864-AA
T39 chain: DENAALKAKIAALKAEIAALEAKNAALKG

[40] = biological target: T40, 4H2162-AA; conditions: mean of both orientations
T40 chain: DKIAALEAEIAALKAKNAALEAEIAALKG

[41] = biological target: T41, 4H3590-AA; conditions: mean of both orientations
T41 chain: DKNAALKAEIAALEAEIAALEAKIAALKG

[42] = biological target: T42, 4H967-AA; conditions: mean of both orientations
T42 chain: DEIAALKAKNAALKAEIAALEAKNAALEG

[43] = biological target: T43, 4H687-AA; conditions: mean of both orientations
T43 chain: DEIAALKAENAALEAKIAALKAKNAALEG

[44] = biological target: T44, 4H883-AA; conditions: mean of both orientations
T44 chain: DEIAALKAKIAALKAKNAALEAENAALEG

[45] = biological target: T45, 4H918-AA; conditions: mean of both orientations
T45 chain: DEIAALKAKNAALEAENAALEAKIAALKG

[46] = biological target: T46, 4H717-AA; conditions: mean of both orientations
T46 chain: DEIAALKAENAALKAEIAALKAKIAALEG

[47] = biological target: T47, 4H568-AA
T47 chain: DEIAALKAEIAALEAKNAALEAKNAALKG

[48] = biological target: T48, 4H953-AA; conditions: mean of both orientations
T48 chain: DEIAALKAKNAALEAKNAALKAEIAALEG

## DENAALKAKIAALEAKNAALEAEIAALKG [4H1842-AA]
[1]
  interaction score: -1.42
[2]
  interaction score: 0.761
[3]
  interaction score: -1.17
[4]
  interaction score: -0.0645
[5]
  interaction score: -1.44
[6]
  interaction score: -1.86
[7]
  interaction score: -1.78
[8]
  interaction score: 0.65
[9]
  interaction score: -1.15
[10]
  interaction score: -1.21
[11]
  interaction score: -1.14
[12]
  interaction score: 0.585
[13]
  interaction score: -1.44
[14]
  interaction score: -1.59
[15]
  interaction score: -1.6
[16]
  interaction score: -1.43
[17]
  interaction score: -0.986
[18]
  interaction score: -1.2
[19]
  interaction score: -1.27
[20]
  interaction score: 1.88
[21]
  interaction score: -1.01
[22]
  interaction score: -0.938
[23]
  interaction score: -1.43
[24]
  interaction score: -1.43
[25]
  interaction score: -1.63
[26]
  interaction score: -0.8
[27]
  interaction score: -2.04
[28]
  interaction score: -1.94
[29]
  interaction score: -1.86
[30]
  interaction score: -1.72
[31]
  interaction score: -1.52
[32]
  interaction score: -1.35
[33]
  interaction score: 0.256
[34]
  interaction score: -1.14
[35]
  interaction score: -1.7
[36]
  interaction score: -1.52
[37]
  interaction score: -1.34
[38]
  interaction score: -1.17
[39]; mean of both orientations
  interaction score: -1.82
[40]
  interaction score: -1.21
[41]
  interaction score: -0.391

## DEIAALKAEIAALEAKNAALEAKNAALKG [4H568-AA]
[42]
  interaction score: -0.838
[43]
  interaction score: -1.51
[44]
  interaction score: 2.12
[45]
  interaction score: -1.24
[46]
  interaction score: -1.75
[37]
  interaction score: -1.39
[47]
  interaction score: -0.405
[48]
  interaction score: -1.78

## DENAALKAKIAALKAEIAALEAKNAALKG [4H1864-AA]
[1]
  interaction score: -0.897
[2]
  interaction score: -1.48
[3]
  interaction score: -1.38
[4]
  interaction score: -1.19
[5]
  interaction score: -1.22
[6]; mean of both orientations
  interaction score: -0.938
[7]
  interaction score: -0.905
[8]
  interaction score: -0.716
[9]
  interaction score: -1.45
[10]
  interaction score: -1.41
[11]
  interaction score: -1.21
[12]
  interaction score: -0.57
[13]
  interaction score: 0.774
[14]
  interaction score: -1.52
[15]
  interaction score: -1.75
[16]
  interaction score: -0.599
[17]
  interaction score: -0.664
[18]
  interaction score: -1.63
[19]
  interaction score: -1.17
[21]
  interaction score: -1.57
[22]
  interaction score: -1.65
[23]
  interaction score: -1.47
[24]
  interaction score: -1.47
[25]
  interaction score: 1.32
[26]
  interaction score: -1.5
[27]
  interaction score: 0.321
[28]
  interaction score: -0.878
[29]
  interaction score: -1.35
[30]
  interaction score: -1.42
[31]
  interaction score: 0.806
[32]; mean of both orientations
  interaction score: -1.49
[33]
  interaction score: 0.223
[34]
  interaction score: 0.434
[35]
  interaction score: 0.437
[36]
  interaction score: 0.231
[37]
  interaction score: -2.09
[38]
  interaction score: -0.986
[39]
  interaction score: 0.981
[40]
  interaction score: -1.67
[41]
  interaction score: 1.23
